Laboratory results as given in patent US20170175137A1.

Target: PD-L1 on FEMX melanoma cells (UniProt Q9NZQ7)
Experiment: cell-based or functional assay

Chain of UniProt Q9NZQ7 (Q9NZQ7 19-290 limits assumed): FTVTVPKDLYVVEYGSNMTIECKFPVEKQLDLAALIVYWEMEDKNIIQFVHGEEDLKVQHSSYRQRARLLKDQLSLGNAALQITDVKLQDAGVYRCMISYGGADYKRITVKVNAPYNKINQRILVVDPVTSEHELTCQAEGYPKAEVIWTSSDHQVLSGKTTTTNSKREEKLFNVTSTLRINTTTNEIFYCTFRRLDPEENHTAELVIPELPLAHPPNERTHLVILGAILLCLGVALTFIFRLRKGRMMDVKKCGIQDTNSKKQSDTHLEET

B1: blocking anti-PD-L1 antibody (Biolegend clone 29E.2A3) (antibody, from another filing, V domains shown)
VH: EVQLQQSGPELVKPGASVKMSCKASGYTFTSYVMHWVKQKPGQGLEWIGYVNPFNDGTKYNEMFKGKATLTSDKSSSTAYMELSSLTSEDSAVYYCARQAWGYPWGQGTLVTVSA
VL: DIVLTQSPASLAVSLGQRATISCRATESVEYYGTSLVQWYQQKPGQPPKLLIYAASSVDSGVPARFSGSGSGTDFSLTIHPVEEDDIAMYFCQQSRRVPYTFGGGTKLEIK
Q: With B1 as the binder, how does the fraction of CD3+CD8+ TIL making IFN-gamma in a 12-hour intracellular cytokine release (ICS) assay, 1520 TIL co-cultured with FEMX tumor cells, antibody at 10 µg/mL read?
A: The fraction of CD3+CD8+ TIL making IFN-gamma in a 12-hour intracellular cytokine release (ICS) assay, 1520 TIL co-cultured with FEMX tumor cells, antibody at 10 µg/mL was 37.3%.
